According to patent US20240132578A1:

Tests used:
Experiment in all cases: cell-based or functional assay
[1] = molecular target: HIV-1 MGRM-AE-006 Env (pseudovirus) (HIV-1)
[2] = molecular target: HIV-1 Env of isolate MGRM-G-011 (subtype G) (HIV-1)
[3] = molecular target: HIV-1 Env of isolate MGRM-G-024 (subtype G) (HIV-1)
[4] = molecular target: HIV-1 92RW021 envelope glycoprotein (Env) on pseudovirus (HIV-1 (clade A))
[5] = molecular target: HIV-1 Env of pseudovirus MGRM-G-014 (HIV-1)
[6] = molecular target: HIV-1 envelope glycoprotein (Env) of isolate MGRM-C-025 (HIV-1)
[7] = molecular target: HIV-1 CMU02 Env (pseudovirus) (HIV-1)
[8] = molecular target: HIV-1 Env of isolate 92UG024 (clade D pseudovirus) (HIV-1)
[9] = molecular target: HIV-1 MGRM-AG-005 Env (pseudovirus) (HIV-1)
[10] = molecular target: HIV-1 Env of isolate 93IN905 (Clade C) (HIV-1)
[11] = molecular target: HIV-1 IAVI-C22 envelope (Env) on pseudovirus (HIV-1)
[12] = molecular target: HIV-1 Env of isolate MGRM-F1-013 (pseudovirus) (HIV-1)
[13] = molecular target: HIV-1 envelope glycoprotein (Env) of isolate MGRM-Chronic-B-001, on pseudovirus (HIV-1)
[14] = molecular target: HIV-1 envelope glycoprotein (Env) of isolate MGRM-Chronic-B-008, on pseudovirus (HIV-1)
[15] = molecular target: HIV-1 Env of isolate MGRM-F1-023 (pseudovirus) (HIV-1)
[16] = molecular target: HIV-1 envelope glycoprotein (Env) of isolate 6535.3, on pseudovirus (HIV-1)
[17] = molecular target: HIV-1 envelope glycoprotein (Env) of isolate MGRM-Chronic-B-024, on pseudovirus (HIV-1)
[18] = molecular target: HIV-1 Env of isolate MGRM-F1-020 (pseudovirus) (HIV-1)
[19] = molecular target: HIV-1 envelope glycoprotein (Env) of isolate MGRM-Chronic-B-012, on pseudovirus (HIV-1)
[20] = molecular target: HIV-1 envelope glycoprotein (Env) of isolate CMU02, subtype AE (HIV-1)
[21] = molecular target: HIV-1 JR-CSF Env I420A (HIV-1 (isolate JR-CSF)) (UniProt P20871)
[22] = molecular target: HIV-1 92BR020 Env (HIV-1)
[23] = molecular target: HIV-1 JR-CSF Env S393A (HIV-1 (isolate JR-CSF)) (UniProt P20871)
[24] = molecular target: HIV-1 JR-CSF Env I415A (HIV-1 (isolate JR-CSF)) (UniProt P20871)

Substance	IC50 (µg/mL), pseudovirus neutralization [12] [µg/mL]	IC50, pseudovirus neutralization [13] [µg/mL]	IC50, pseudovirus neutralization [14] [µg/mL]	IC50 (µg/mL), pseudovirus neutralization [15] [µg/mL]	IC50, pseudovirus neutralization [16] [µg/mL]	IC50, pseudovirus neutralization [17] [µg/mL]	IC50 (µg/mL), pseudovirus neutralization [18] [µg/mL]	IC50, pseudovirus neutralization [19] [µg/mL]	IC50, pseudovirus neutralization [20] [µg/mL]	Fold IC50 increase relative to wild-type (pseudovirus neutralization) [21] [fold]	IC50, pseudovirus neutralization [22] [µg/mL]	Fold IC50 increase relative to wild-type (pseudovirus neutralization) [23] [fold]	Fold IC50 increase relative to wild-type (pseudovirus neutralization) [24] [fold]	further results
1496_C09 (PG9) (TCN-109) (antibody)	–	–	–	–	–	–	–	–	–	–	–	–	–	IC50 (µg/ml), pseudovirus neutralization [1]: 0.05 µg/mL; IC50 (µg/mL), pseudovirus neutralization [2]: 0.335 µg/mL; IC50 (µg/mL), pseudovirus neutralization [3]: 0.163 µg/mL; IC50 (µg/ml), pseudovirus neutralization [4]: 0.05 µg/mL; IC50 (µg/ml), pseudovirus neutralization [5]: 6.32 µg/mL; IC50 (µg/ml), pseudovirus neutralization [6]: 0.17 µg/mL; IC50 (µg/ml), pseudovirus neutralization [7]: 7.69 µg/mL; IC50, pseudovirus neutralization [8]: 1.91 µg/mL; IC50 (µg/ml), pseudovirus neutralization [9]: 29.7 µg/mL; IC90 (neutralization of pseudovirus) [10]: 1.89 µg/mL; neutralization IC50 [11]: 24.9 µg/mL
4838_L06 (PGT-121) (antibody)	0.083	0.102	0.007	0.097	0.005	0.195	0.167	0.036	> 50	–	–	–	–	–
4858_P08 (PGT-123) (antibody)	0.08	0.15	0.01	0.053	0.004	> 50	0.051	0.227	> 50	3.2	0.013	0.6	0.4	–
4877_D15 (PGT-122) (antibody)	0.152	0.138	0.017	0.154	0.006	2.31	0.321	0.066	> 50	–	0.0337	–	–	–
5123_A06 (PGT-125) (antibody)	> 50	> 50	> 50	0.12	0.01	> 50	> 50	0.036	> 50	1.1	0.0214	0.5	0.3	Neutralization by PGT-125, IC50 [7]: > 10 µg/mL; Neutralization by PGT-125, IC80 [7]: > 10 µg/mL; Neutralization by PGT-125, IC90 [7]: > 10 µg/mL; Neutralization by PGT-125, IC95 [7]: > 10 µg/mL; Neutralization by PGT-125, IC50 [9]: > 10 µg/mL; Neutralization by PGT-125, IC80 [9]: > 10 µg/mL; Neutralization by PGT-125, IC90 [9]: > 10 µg/mL; Neutralization by PGT-125, IC95 [9]: > 10 µg/mL
5141_B17 (PGT-126) (antibody)	> 50	> 50	5.89	0.009	0.022	> 50	> 50	0.027	> 50	0.6	0.0163	0.5	0.3	–
5145_B14 (PGT-127) (antibody)	> 50	> 50	21.5	0.119	0.02	> 50	> 50	0.075	> 50	1.8	–	1.2	2.1	–
PGV04 (antibody)	–	–	–	–	–	–	–	–	–	–	–	–	–	IC50 (µg/mL), pseudovirus neutralization [2]: 0.78 µg/mL; IC50 (µg/mL), pseudovirus neutralization [3]: 0.033 µg/mL
